Common to all, as to conditions: both partners purified
Assay [1] addresses T1, human serum albumin (Homo sapiens, UniProt P02768).
T1 construct: also called HSA
Put plainly: BLI; HSA (4 μM) loaded on APS sensors; DesAbs at 1 μM, 500 nM and 250 nM (Nb.B201 at 800 and 400 nM); 170 mM NaCl, 50 mM tris-HCl, 10 mM MgCl2 pH 7.4; 25°C; global fit, Kd = Koff/Kon.

In assay [2] the target is T1, human serum albumin. Briefly: BLI. (In general: In BLI a coated tip is dipped into the sample, and binding shifts an interference pattern.)
Assay [3] concerns the target T1, human serum albumin. Put plainly: BLI. The source holds these as a separate data set.
Assay [4] has as its target T2, SARS-CoV-2 Spike Glycoprotein (S1) His-Tagged RBD (SARS-CoV-2, UniProt P0DTC2).
T2 construct: source: bought: The Native Antigen Company (REC31849), produced in HEK293 cells
Briefly: BLI.

The target of assay [5] is pancreatic bovine trypsin (Bos taurus, UniProt P00760). Briefly: BLI; His-tagged DesAb (7.5 μM) loaded to saturation on Ni-NTA sensors, trypsin in solution; 170 mM NaCl, 50 mM tris-HCl, 10 mM MgCl2 pH 7.4; 25°C.
Chain of pancreatic bovine trypsin (P00760 24-246): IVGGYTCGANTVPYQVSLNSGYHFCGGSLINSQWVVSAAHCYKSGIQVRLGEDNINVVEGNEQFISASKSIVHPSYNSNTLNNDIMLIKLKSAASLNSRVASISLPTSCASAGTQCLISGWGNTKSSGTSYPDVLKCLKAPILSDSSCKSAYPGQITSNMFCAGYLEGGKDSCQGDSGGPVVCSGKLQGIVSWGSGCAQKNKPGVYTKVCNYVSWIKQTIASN
Assay [6] deals with T1, human serum albumin. Put plainly: BLI; HSA (4 μM) loaded on APS sensors; DesAbs at 1 μM, 500 nM and 250 nM (Nb.B201 at 800 and 400 nM); 170 mM NaCl, 50 mM tris-HCl, 10 mM MgCl2 pH 7.4; 25°C; global fit, Kd = Koff/Kon. This is another data set of the same source.
For assay [7], the target named is T2, SARS-CoV-2 Spike Glycoprotein (S1) …. Briefly: BLI. The source holds these as a separate data set.

As usually defined, the Kd is the concentration at which binding is half-saturated. High values mean a looser complex, low ones a tighter complex.

B1: DesAb-HSA-P2 (VHH)
VHH: EVQLEESGGGLVQPGGSLRLSCAASGFNIKDTYIGWVRQAPGKGEEWVASIYPTSGYTRYADSVKGRFTISADTSKNTAYLQMNSLRAEDTAVYYCAAGSAQAGNAEEAEEEFDYWGQGTLVTVSS
B1 had a Kd in assay [1] of 380 nM.

B2: DesAb-HSA-P1 (VHH)
VHH: EVQLEESGGGLVQPGGSLRLSCAASGFNIKDTYIGWVRQAPGKGEEWVASIYPTSGYTRYADSVKGRFTISADTSKNTAYLQMNSLRAEDTAVYYCAAGSIQKSLQTAESILEEFDYWGQGTLVTVSS
The molecule B2 gave a dissociation constant Kd in assay [2] of 120 nM. This counts as sub-micromolar.

B3: DesAb-HSA-D3 (VHH)
VHH: EVQLQESGGGLVQAGGSLRLSCAASGELYALISMGWFRQAPGKEREFVAAISRNGDNTYYTDSVKGRFTISRDNAKNTVELQMNSLKPEDTAVYYCAADKFASPDGSVTIMTNEYDYWGQGTQVTVSD
Regarding B3, in assay [2], the affinity, expressed as Kd, was 180 nM.

B4: Nb.B201 (VHH)
VHH: QVQLQESGGGLVQAGGSLRLSCAASGYISDAYYMGWYRQAPGKEREFVATITHGTNTYYADSVKGRFTISRDNAKNTVYLQMNSLKPEDTAVYYCAVLETRSYSFRYWGQGTQVTVSS
notes: also called yeast display-derived anti-HSA nanobody
With B4, the binding result in assay [3] was “binds”.

B5: DesAb-RBD-C1 (VHH)
VHH: EVQLEESGGGLVQPGGSLRLSCAASGFNIKDTYIGWVRQAPGKGEEWVASIYPTSGYTRYADSVKGRFTISADTSKNTAYLQMNSLRAEDTAVYYCAAGSGSSATEVYEEFDYWGQGTLVTVSS
In assay [4], B5 displayed a Kd of 210 nM.

B6: DesAb-Tryp (VHH)
VHH: EVQLEESGGGLVQPGGSLRLSCAASGFNIKDTYIGWVRQAPGKGEEWVASIYPTSGYTRYADSVKGRFTISADTSKNTAYLQMNSLRAEDTAVYYCAAGSQSGYHFEEFDYWGQGTLVTVSS
In assay [5], B6 gave a Kd of 1800 nM. The binding result in assay [6] is “no binding (tested: 1 μM)”; in assay [7] it was “no binding (tested: 4 μM)”.

B7: DesAb-RBD-C2 (VHH)
VHH: EVQLEESGGGLVQPGGSLRLSCAASGFNIKDTYIGWVRQAPGKGEEWVASIYPTSGYTRYADSVKGRFTISADTSKNTAYLQMNSLRAEDTAVYYCAAGSVVADLSVEEFDYWGQGTLVTVSS
In assay [4], B7 displayed a Kd of 130 nM. This lies in the sub-micromolar range.

Values taken from PMC9651861 (Science Advances, 2022).
